Measured values: PMC5984089, “FBXW7 regulates DISC1 stability via the ubiquitin-proteosome system” (Molecular Psychiatry, 2017)
Values joined by “and” are separate entries in the source; they are usually repeats but may differ in a detail not shown here. Equal values may be shown once. Non-standard residues stand in square brackets, D forms with d. Residues, ends and D or L forms follow the SMILES beside them. No end group written: not given here. pT = C[C@@H](OP(=O)(O)O)[C@H](N)C(=O)O; pS = N[C@@H](COP(=O)(O)O)C(=O)O

What was measured:
[1] = biological target: T1, Skp1-FBXW7 complex (Homo sapiens, UniProt Q969H0); experiment: Isothermal titration calorimetry of DISC1 peptides; assay type: binding; conditions: for Kd: NANO ITC, 20 mM HEPES-Na (pH 7.4), 200 mM NaCl, 2 mM β-mercaptoethanol, mean ± s.d. from two to three independent measurements, read-out: dissociation constant (KD)
T1 construct: human FBXW7 (residues 263–707); His6 (N, cleaved yes); made in house; host or cells: Escherichia coli
Procedure: Amino-terminal His6 tagged human FBXW7 (residues 263–707) and truncated Skp1 (Schulman et al., 2000) were co-expressed as a dicistronic message in Escherichia coli. The Skp1-FBXW7 complexes were purified by Ni2+-nitrilotriacetic acid (NTA) affinity chromatography followed by tobacco eth virus (TEV) protease cleavage of the His6 tag, and by anion exchange and gel filtration chromatography. For crystallization, the Skp1-FBXW7 complex was concentrated to 48 mg ml^–1 by ultrafiltration in 20 mM HEPES-Na (pH 7.4), 200 mM NaCl and 5 mM dithiothreitol (DTT). The DISC1 peptides were synthesized chemically and purified by HPLC.
All measurements were performed at 25 °C with a NANO ITC System (TA Instruments, New Castle, DE, USA). Protein samples were dialyzed against a solution containing 20 mM HEPES-Na (pH 7.4), 200 mM NaCl, and 2 mM β-mercaptoethanol. Typically, the concentrations of Skp1-FBXW7 and DISC1 peptides were […] and 1 mM, respectively. Titration data were analyzed using the TA Nano Analyze software, and the reported dissociation constants and their standard deviations were derived from two to three independent measurements.
To test whether phosphorylation of both the Thr198 and Ser202 sites in DISC1 is required for binding to FBXW7, we used isothermal titration calorimetry (ITC) to measure the binding affinity of various phosphorylated DISC1 peptides to the Skp1-FBXW7 complex (Supplementary Figure 5). […] Thus, specific interaction of DISC1 with the Skp1-FBXW7 complex requires simultaneous phosphorylation at Thr198 and Ser202 within the DISC1 PD motif.

[2] = system: purified protein complex containing 6His-FBXW7 and Skp1; experiment: Peptide array overlay with 6His-FBXW7/Skp1, substitution and truncation analysis; assay type: binding, human; conditions: for binding potential for the FBXW7 complex vs dually-phosphorylated control sequence: densitometry of 6His probe
From the text: Peptide libraries were produced by automatic SPOT synthesis and synthesized on continuous cellulose membrane supports on Whatman 50 cellulose membranes using Fmoc-chemistry with the AutoSpot-Robot ASS 222 (Intavis Bioanalytical Instruments, Köln, Germany) as previously described.[17] Phosphorylation of peptide array peptides by constitutively active GSK3 (14-306, Millipore UK) was undertaken as previously described.[18] Phosphorylation was detected using a phospho-serine specific antibody (ab9332, Abcam, UK).
Figure 2 FBXW7 binds DISC1 via a PD motif to regulate turnover of DISC1. (a) HEK293 cells were transfected with FLAG-tagged FBXW7 or FLAG-tagged FBXW7 without the F-Box substrate-binding domain (Δ-F). Lysates were prepared and blotted for DISC1, c-MYC, FLAG and GAPDH. Relative levels of DISC1 expression were calculated (right hand panel). *=P<0.05 as measured by Student’s t-test, n=3 (b) HEK293 cells were transfected with FLAG-FBXW7 and GFP-DISC1 (upper panels) or FLAG-FBXW7 and V5-DISC1 (lower panels). FLAG was immunoprecipitated from cell lysates and blotted for FLAG, GFP and V5. (c) HEK293 cells were transfected with FLAG-DISC1. FLAG was immunoprecipitated from cell lysates and blotted for FLAG and endogenous FBXW7. (d) and (e) Peptide arrays of sequences containing the DISC1 PD were overlayed with a purified protein complex containing 6His-FBXW7 and Skp1. Arrays were then probed for His tag. (f) Sequences of known FBXW7 substrates contain a PD that is also present in DISC1.
Figure 3 Substitution analysis pinpoints novel binding motifs for FBXW7. (a) Peptide array grids containing substitution of residues within the core binding motif domain ^197PTPPGSH^202 (with a range of native and non-native residues) were overlaid with a purified protein complex containing 6His-FBXW7 and Skp1. mD and mE are N-methyl aspartic acid and N-methyl glutamic acids respectively. (d) and (e) are the D-forms of aspartic acid and glutamic acid. (b) Arrays were then probed for 6His and spots that were over 200% of the control identified by densitometry.

[3] = system: DISC1, HEK293 cells; experiment: Endogenous DISC1 protein level in HEK293 cells, western blot; assay type: cell-based, human; conditions: cycloheximide 50 μg ml^–1, Figure 1a, n=3
Procedure: HEK293 cells were sourced from ATCC (CRL-1573) and cultured as described in the manufacturer’s protocol. DMEM (SIGMA) supplemented with 10% fetal bovine serum, 2 mM L-glutamine, […] penicillin-streptomycin at 37 °C in a humidified atmosphere of 5% CO2. The cells were passaged at about 80% confluency. Cells were transfected with plasmid DNA using polyfect transfection reagent (Qiagen) according to the manufacturer’s instructions. HEK293 cells were treated with the pharmacological agents cycloheximide (C7698) and MG132 (M7449) (Sigma-Aldrich) or DISC1 disruptor peptides (custom synthesized by Severn Biotech) as described in the text.
Briefly, detergent-soluble proteins were isolated from cells by disruption in lysis buffer 20 mM Tris-HCl (pH 7.5), 150 mM NaCl, 1 mM Na2EDTA, 1 mM EGTA, 1% triton, 2.5 mM sodium pyrophosphate, 1 mM β-glycerophosphate, 1 mM Na3VO4, 1 μg ml^–1 leupeptin, 10 mM DTT with Roche protease inhibitor, phosSTOP (Roche, 04906837001). Detergent-insoluble proteins were removed by centrifugation at 10 000 g for 10 min, and the soluble fraction was retained. Cell lysates were adjusted to equal protein amount (1 μg μl^–1) using cell lysis buffer. Cell lysates normalized for the protein concentration were incubated with mouse IgG (Millipore, 12487) Protein A agarose beads for 2 h at 4 °C. […] The complexes were analyzed on SDS PAGE. […]

[4] = biological target: purified protein complex containing 6His-FBXW7 and Skp1, Q969H0;P63208; experiment: peptide array overlay, anti-6His detection, densitometry; conditions: read off a plot
[5] = biological target: Skp1-FBXW7 complex (human FBXW7 residues 263-707 with truncated Skp1, His6 tag cleaved) (UniProt Q969H0); experiment: ITC; 25 °C, NANO ITC System; 20 mM HEPES-Na (pH 7.4), 200 mM NaCl, 2 mM β-mercaptoethanol; Skp1-FBXW7 and DISC1 peptides typically 50 mM and 1 mM (so in the source); two to three independent measurements
[6] = biological target: T2, human FBXW7 (residues 263-707) (human, UniProt Q969H0 263-707); experiment: crystal structure; Skp1-FBXW7 mixed with a twofold molar excess of the DISC1 peptide; crystallised from 100 mM HEPES-Na (pH 7.4), 1.2 M Li2SO4, hanging drop, 4 °C; one complex in the asymmetric unit; conditions: both partners purified
T2 construct: human FBXW7, residues 263-707; The FBXW7 chain of m1, written alone for the pairs inside the crystal structure; also called Fbw7; source: E. coli, co-expressed with truncated Skp1, purified as the complex; not shown: His6, N-terminal, cleaved

[7] = ITC, 25 °C, pH 7.4, singly phosphorylated peptides

T1 sequence (Q969H0 263-707, one chain of several): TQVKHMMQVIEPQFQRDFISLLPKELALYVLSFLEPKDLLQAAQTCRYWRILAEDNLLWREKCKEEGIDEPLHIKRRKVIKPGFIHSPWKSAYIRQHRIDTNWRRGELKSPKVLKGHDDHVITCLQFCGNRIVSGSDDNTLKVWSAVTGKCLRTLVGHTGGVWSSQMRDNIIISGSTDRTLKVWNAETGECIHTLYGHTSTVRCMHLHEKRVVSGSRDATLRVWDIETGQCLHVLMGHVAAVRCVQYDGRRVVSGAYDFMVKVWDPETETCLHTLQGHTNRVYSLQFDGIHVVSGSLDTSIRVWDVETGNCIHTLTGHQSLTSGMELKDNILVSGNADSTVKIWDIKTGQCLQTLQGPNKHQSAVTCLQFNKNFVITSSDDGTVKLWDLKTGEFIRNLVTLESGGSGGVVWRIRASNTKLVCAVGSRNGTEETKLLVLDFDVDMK
T2 sequence (Q969H0 263-707): as the sequence (Q969H0 263-707, one chain of several) above

CC(C)[C@H](NC(=O)[C@H](CCC(=O)O)NC(=O)[C@@H]1CCCN1)C(=O)N1CCC[C@H]1C(=O)N1CCC[C@H]1C(=O)N[C@H](C(=O)N1CCC[C@H]1C(=O)N1CCC[C@H]1C(=O)NCC(=O)N[C@@H](COP(=O)(O)O)C(=O)N[C@@H](Cc1c[nH]cn1)C(=O)N[C@@H](CO)C(=O)N[C@@H](C)C(=O)N[C@@H](Cc1ccccc1)C(=O)N[C@H](C(=O)O)[C@@H](C)O)[C@@H](C)OP(=O)(O)O [DISC1^193–207/pT198/pS202] (H-PEVPP[pT]PPG[pS]HSAFT-OH)
Kd ([1]; ITC, 25 °C): 1 ± 0.2 µM

C[C@@H](OP(=O)(O)O)[C@H](NC(=O)[C@@H]1CCCN1)C(=O)N1CCC[C@H]1C(=O)N1CCC[C@H]1C(=O)NCC(=O)N[C@@H](COP(=O)(O)O)C(=O)N[C@@H](Cc1c[nH]cn1)C(=O)O [DISC1^197–203/pT198/pS202] (H-P[pT]PPG[pS]H-OH)
Kd ([1]; ITC, 25 °C): 17 ± 2 µM

GmEPPGmEH [I11, substituted DISC1 PD core peptide GmEPPGmEH]
binding potential for the FBXW7 complex vs dually-phosphorylated control sequence [2]: more than a twofold increase in binding potential

C[C@@H]1C[C@@H]([C@H](O)CC2CC(=O)NC(=O)C2)C(=O)[C@@H](C)C1 [cycloheximide, reference compound]
endogenous DISC1 level after cycloheximide [3]: rapidly decreased

DISC1^193–207/pT198: singly phosphorylated DISC1 peptide (PEVPP[pT]PPGSHSAFT)
measurable enthalpy signal / ITC signal [1, 7]: neither of the singly phosphorylated DISC1^193–207/pT198 and DISC1^193–207/pS202 peptides gave a measurable enthalpy signal | measurable enthalpy signal / ITC signal ([1]; ITC, 25 °C, pH 7.4; singly phosphorylated peptides; pT198)): No ITC signal

DISC1^193–207/pS202: singly phosphorylated DISC1 peptide (PEVPPTPPG[pS]HSAFT)
measurable enthalpy signal / ITC signal [1, 7]: neither of the singly phosphorylated DISC1^193–207/pT198 and DISC1^193–207/pS202 peptides gave a measurable enthalpy signal | measurable enthalpy signal / ITC signal ([1]; ITC, 25 °C, pH 7.4; singly phosphorylated peptides; pS202)): No ITC signal

DISC1 peptide (residues 197-203, phosphorylated at Thr198 and Ser202) P197G; pT198d (D-Asp); pS202mE (N-methyl Glu)
percent of parent [4]: 250 % of control

DISC1 peptide (residues 197-203, phosphorylated at Thr198 and Ser202) pT198d (D-Asp); pS202mE (N-methyl Glu)
percent of parent [4]: 220 % of control and 190 % of control

DISC1 peptide (residues 197-203, phosphorylated at Thr198 and Ser202) pT198E; pS202mD (N-methyl Asp)
percent of parent [4]: 230 % of control

DISC1 peptide (residues 197-203, phosphorylated at Thr198 and Ser202) pT198E; pS202d (D-Asp)
percent of parent [4]: 210 % of control

PTPPGSH
association of FBXW7 complex / core binding sequence ([2]; phosphorylation and truncation analysis): minimum core binding sequence within the PD domain

GmDPPGmEH [I14, substituted DISC1 PD core peptide GmDPPGmEH]
binding potential for the FBXW7 complex vs dually-phosphorylated control sequence [2]: more than a twofold increase in binding potential

DISC1 peptide (residues 197-203, phosphorylated at Thr198 and Ser202) pT198e (D-Glu); pS202mE (N-methyl Glu)
percent of parent [4]: 210 % of control and 280 % of control

P[pT]PPG[pS]H [DISC1 peptide (residues 197-203, phosphorylated at Thr198 and Ser202)]
Kd [5]: 17 µM

B1: DISC1 peptide (residues 193-207, phosphorylated at Thr198 and Ser202) (peptide, UniProt Q9NRI5 193-207, looked up)
peptide: PEVPP[pT]PPG[pS]HSAFT
notes: printed residues: Pro193, Glu194, Val195, Pro196, Pro197, Thr198, Pro199, Pro200, Gly201, Ser202, His203; also called 15-residue core peptide; source: synthetic peptide, purified by HPLC
binding result [6]: binds | Kd [5]: 1 µM
